# Experimental data as given in US12564637B2, “Nucleic acid mazzocchio and methods of making and use thereof” (The University of Hong Kong, priority 2019, dated 2026).
# B1: mazzocchio: DNA nanostructure of 16 hexagonal subunits, each composed of 12 single-stranded DNA oligonucleotides (SEQ ID NOs: 1-12) (nucleic acid)
# chain 1: GATAGGCCGAGATCTGAGGATGCTGGCTCACGCCATTGGCTCGCGACCCCGTCCGCTAGACGTTATGCACAAGGCGTTGTCATTAGATGCTTAGGTGCTCAGGCCGTAATGAGGCCGCTTGGCTGCGTTCCTCCGCCGCTTGGGAACAGCCCCGC
# chain 2: TCCAGCTCTGCGGACGGGGTCGCGAGCCATTCGAGGGCT
# chain 3: TCGCCTGTAATACGCCTTGTGCATAACGTCTTGCCAACCC
# chain 4: TGCCCGTACCCTGGTGCACCTAAGCATCTAATGACTCTGCGGAAGA
# chain 5: TACCCCACTTTAGCGATAGCGGCCTCATTACGGCCTGTGCTACCCGTACGGA
# chain 6: ATCAGTACGATTGGCGTGAGCCAGCATCCTCTAGCGGCGGAGGAACGCAGCCTAGGCGGAACTCTTCGG
# chain 7: TCGCTAAAGTGGGGTACCGAAGAGTTCCGCCT
# chain 8: GATCTCGGCCTATCGCGGGGCTGTTCCC
# chain 9: TCGTACTGATGAGCCCTCGA
# chain 10: GAGCTGGAGGGTTGGC
# chain 11: TTACAGGCGATCTTCCGCAG
# chain 12: CCAGGGTACGGGCATCCGTACGGGTAGC
# modifications: 16 hexagonal subunits assembled; Synthetic sequence - strand 1; Synthetic sequence - strand 2; Synthetic sequence - strand 3; Synthetic sequence - strand 4; Synthetic sequence - strand 5; Synthetic sequence - strand 6; Synthetic sequence - strand 7; Synthetic sequence - strand 8; Synthetic sequence - strand 9; Synthetic sequence - strand 10; Synthetic sequence - strand 11; Synthetic sequence - strand 12
# Tests used:
# [1] = Doxorubicin loading/encapsulation by quenching of doxorubicin fluorescence; type: binding
# Description: The DNA mazzocchio (from Example 1) and DNA tetrahedron nanostructures were made through an annealing process. The multiple single-stranded DNAs were mixed in equal ratio and placed in a thermal cycler to heat up (95° C. for 5 minutes) followed by slow cooling (overnight down to 20° C.).
# 10 μM of doxorubicin was incubated with various concentrations of the DNA mazzocchio and DNA tetrahedron nanostructures (as shown on the X-axis of FIG. 2) for 1 hour at room temperature. Then, 13 μl of mixture was placed in a 384-well microtiter plate and inserted in the plate reader. The fluorescence was measured using a plate reader (Varioskan Flash by Thermo Fisher Scientific) at the following parameters: Excitation 488 nm/Emission 595 nm; bandwidth 12 nm; measurement time: 500 ms. Error bars were obtained as standard error from triplicate experiments.
# Since the intercalation of doxorubicin inhibited its fluorescence, the loading efficiency could be determined by the half maximal inhibitory concentration (IC50).
# [2] = Diameter of the nanostructure by transmission electron microscopy (TEM); type: physicochemical; settings: images analyzed by ImageJ
# Description: TEM was used to characterize the final DNA mazzocchio nanostructure. 5 μl of DNA mazzocchio samples were first adsorbed onto glow-discharged 400 mesh copper grids (Ted Pella, Inc.) for 1 minute. This was followed by staining with 2% uranyl acetate for 1 minute. The stained samples were washed twice by distilled water to remove excess uranyl acetate. Stained DNA mazzocchio samples on the grid were visualized using a Philips CM 100 Transmission Electron Microscope with 100 kV operating voltage. Electron photomicrographs of DNA mazzocchio were captured with magnification from 73,000×-105,000× on different positions of the grid. To experimentally determine the diameter of the DNA mazzocchio, images were analyzed by the ImageJ software.
molecule,measurement,setting,value
B1,IC50,"[1]; 10 μM doxorubicin, 1 hour at room temperature, Ex 488 nm/Em 595 nm, triplicate, read-out: half maximal inhibitory concentration (IC50) of doxorubicin fluorescence (loading efficiency)",480 nM
same,effectiveness in carrying doxorubicin as compared to the tetrahedron,[1]; comparison of the IC50 values,three times more effective
same,average diameter of the nanostructures,[2],49.30±10.37 nm
